According to patent US20190352429A1 (published 2019):
Numbering of substitutions follows the chain as printed. Names may count otherwise.

B1: BxM wt (B10v5 x hu225M SEED bispecific IgG without interface mutations) (bispecific antibody)
heavy 1: not shown
light 1: EPVLTQPPSVSVAPGETATIPCGGDSLGSKIVHWYQQRPGQAPLLVVYDDAARPSGIPERFSGSKSGTTATLTISSVEAGDEADYFCQVYDYHSDVEVFGGGTKLTVLGQPKAAPSVTLFPPSSEELQANKATLVCLISDFYPGAVTVAWKADSSPVKAGVETTTPSKQSNNKYAASSYLSLTPEQWKSHKSYSCQVTHEGSTVEKTVAPTECS
heavy 2: EVQLVQSGAEVKKPGASVKVSCKASGFSLTNYGVHWMRQAPGQGLEWIGVIWSGGNTDYNTPFTSRVTITSDKSTSTAYMELSSLRSEDTAVYYCARALTYYDYEFAYWGQGTLVTVSSASTKGPSVFPLAPSSKSTSGGTAALGCLVKDYFPEPVTVSWNSGALTSGVHTFPAVLQSSGLYSLSSVVTVPSSSLGTQTYICNVNHKPSNTKVDKKVEPKSCDKTHTCPPCPAPELLGGPSVFLFPPKPKDTLMISRTPEVTCVVVDVSHEDPEVKFNWYVDGVEVHNAKTKPREEQYNSTYRVVSVLTVLHQDWLNGKEYKCKVSNKALPAPIEKTISKAKGQPREPQVYTLPPPSEELALNELVTLTCLVKGFYPSDIAVEWLQGSQELPREKYLTWAPVLDSDGSFFLYSILRVAAEDWKKGDTFSCSVMHEALHNHYTQKSLDRSPGK
light 2: DIQMTQSPSSLSASVGDRVTITCRASQSIGTNIHWYQQKPGKAPKLLIKYASESISGVPSRFSGSGYGTDFTLTISSLQPEDVATYYCQQNYNWPTTFGQGTKVEIKRTVAAPSVFIFPPSDEQLKSGTASVVCLLNNFYPREAKVQWKVDNALQSGNSQESVTEQDSKDSTYSLSSTLTLSKADYEKHKVYACEVTHQGLSSPVTKSFNRGEC
notes: By LC-ESI-MS the preparation held only 76% of the correctly paired form (12% + 12% light chain mispaired variants); also called BxM wildtype
B2: BxM MaB40 (B10v5 x hu225M SEED bispecific IgG with K26D in CH1 and T18R in CL of hu225M) (bispecific antibody)
heavy 1: not shown
light 1: B1 light 1
heavy 2: B1 heavy 2 with K149D
light 2: B1 light 2 with T129R
notes: Only the correctly paired form was detected by LC-ESI-MS; also called mutant BxM MaB40

What was measured:
[1] = molecular target: T1, EGFR extracellular domain (human, UniProt P00533 25-645); experiment: Octet BLI, protein A biosensors, extracellular domain as antigen
T1 construct: extracellular domain; also called human EGFR; epidermal growth factor receptor
Protocol: (§1) The affinity of BxM wildtype and MaB40 was analysed using an Octet system with biosensors coated with protein A. As antigens, the extracellular domains of cMET and EGFR were used. Three different concentrations of antibody were tested to determine the affinity.

[2] = molecular target: T2, cMET extracellular domain (human, UniProt P08581 25-932); experiment: as above
T2 construct: extracellular domain; also called human c-MET
Protocol: as §1

Binder | Kd [1] | Kd [2]
B1 | 5.3 nM | 0.35 nM
B2 | 2.9 nM | 0.42 nM
